This experiment has as its target T1, CD47 on human cancer cells and in human tumor and normal tissue samples (human, UniProt Q08722 19-323).
T1 construct: whole, on cells; also called CD47 antigen; CD47 tumor antigen
The experiment can be described thus: IHC staining of tumor and normal tissue samples.

B1: humanized CD47 ScFv fused in frame with C-terminal human Fc (scFv)
scFv: EVQLVESGGGLVQPGGSLRLSCAASGFTFSGYGMSWVRQAPGKGLEWVATITSGGTYTYYPDSVKGRFTISRDNAKNSLYLQMNSLRAEDTAVYYCARSLAGNAMDYWGQGTLVTVSSGGGGSGGGGSGGGGSEIVLTQSPATLSLSPGERATLSCRASQSISDYLHWYQQKPGQAPRLLIYFASQRATGIPARFSGSGSGTDFTLTISSLEPEDFAVYYCQQGHGFPRTFGGGTKVEIK
notes: also called humanized anti-CD47 scFv; not shown: C-terminal human Fc from pYD11 vector
Regarding B1, the binding result is given as “binds”.

For the origin of these results see patent US20190338028A1 (PROMAB BIOTECHNOLOGIES, published 2019).
